Patent publication US20220235136A1, “METHODS AND COMPOSITIONS FOR TREATING A DISEASE OR DISORDER” (YALE UNIVERSITY, priority 2019, published 2022)

Columns and labels:
[1] = target: CD93 on cells in Example 20 (transfected HEK293T cells, FIG. 28A; CHO cells stably expressing CD93, FIG. 28B); species not stated; assay: flow cytometry, CHO cells stably expressing CD93 stained with IGFBP7-Ig (dashed) or Control (solid) in the presence of MMRN2 (panel '+MMRN2', form of the MMRN2 not stated); bar chart of MFI beside it marked ns against 'None'
CD93 on cells in Example 20 (transfected HEK293T cells, FIG. 28A; CHO cells stably expressing CD93, FIG. 28B); species not stated, sequence (Q9NPY3 22-652): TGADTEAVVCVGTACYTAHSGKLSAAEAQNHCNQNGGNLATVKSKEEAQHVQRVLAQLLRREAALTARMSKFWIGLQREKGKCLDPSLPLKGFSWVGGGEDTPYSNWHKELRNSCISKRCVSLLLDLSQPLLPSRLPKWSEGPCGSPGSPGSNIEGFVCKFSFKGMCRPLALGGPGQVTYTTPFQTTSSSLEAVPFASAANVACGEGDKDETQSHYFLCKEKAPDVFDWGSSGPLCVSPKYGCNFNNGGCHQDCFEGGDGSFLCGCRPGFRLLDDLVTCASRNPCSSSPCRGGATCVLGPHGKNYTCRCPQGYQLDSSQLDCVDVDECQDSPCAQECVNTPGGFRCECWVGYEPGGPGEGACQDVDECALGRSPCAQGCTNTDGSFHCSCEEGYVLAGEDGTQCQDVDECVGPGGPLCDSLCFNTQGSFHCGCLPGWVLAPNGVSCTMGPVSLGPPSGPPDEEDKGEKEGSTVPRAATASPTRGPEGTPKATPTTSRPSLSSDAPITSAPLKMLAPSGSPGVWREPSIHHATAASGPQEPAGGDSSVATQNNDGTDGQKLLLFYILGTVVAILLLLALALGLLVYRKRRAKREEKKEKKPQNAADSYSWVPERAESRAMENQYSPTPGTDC

[2] = target: CD93 on cells in Example 20 (transfected HEK293T cells, FIG. 28A; CHO cells stably expressing CD93, FIG. 28B); species not stated; assay: flow cytometry, HEK293T cells transfected with CD93 stained with IGFBP7-Ig; dashed = transfectant, solid = WT 293T
[3] = target: CD93 on cells in Example 20 (transfected HEK293T cells, FIG. 28A; CHO cells stably expressing CD93, FIG. 28B); species not stated; assay: flow cytometry, CHO cells stably expressing CD93 stained with IGFBP7-Ig (dashed) or Control (solid), no competitor
[4] = target: CD248 on transfected HEK293T cells; assay: flow cytometry, HEK293T cells transfected with CD248 stained with IGFBP7-Ig; dashed = transfectant, solid = WT 293T; histograms overlie; the text tells this pair as not binding
CD248 on transfected HEK293T cells, sequence (Q9HCU0 18-757): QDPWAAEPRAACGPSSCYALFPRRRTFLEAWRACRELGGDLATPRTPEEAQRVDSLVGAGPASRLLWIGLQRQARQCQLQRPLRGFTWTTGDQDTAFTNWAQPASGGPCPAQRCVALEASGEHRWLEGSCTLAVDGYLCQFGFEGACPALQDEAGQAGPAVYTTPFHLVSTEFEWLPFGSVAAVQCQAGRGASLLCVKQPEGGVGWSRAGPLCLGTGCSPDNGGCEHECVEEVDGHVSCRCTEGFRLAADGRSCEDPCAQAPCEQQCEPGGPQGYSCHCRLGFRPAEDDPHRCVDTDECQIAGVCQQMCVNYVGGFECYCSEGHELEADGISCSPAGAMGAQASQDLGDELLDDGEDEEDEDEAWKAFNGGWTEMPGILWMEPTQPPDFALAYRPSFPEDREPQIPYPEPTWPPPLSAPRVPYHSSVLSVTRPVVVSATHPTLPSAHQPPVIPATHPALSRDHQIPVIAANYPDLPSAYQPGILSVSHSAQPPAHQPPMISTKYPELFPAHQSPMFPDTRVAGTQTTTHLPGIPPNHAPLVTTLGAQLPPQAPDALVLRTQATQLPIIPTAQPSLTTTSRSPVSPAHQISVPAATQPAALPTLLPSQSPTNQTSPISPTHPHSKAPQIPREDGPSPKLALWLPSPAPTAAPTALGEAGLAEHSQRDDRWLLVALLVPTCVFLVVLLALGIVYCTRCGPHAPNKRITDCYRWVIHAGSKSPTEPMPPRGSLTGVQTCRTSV

CD141 [5] = assay: flow cytometry, HEK293T cells transfected with CD141 stained with IGFBP7-Ig; dashed = transfectant, solid = WT 293T; histograms overlie
CD141, sequence (P07204 19-575): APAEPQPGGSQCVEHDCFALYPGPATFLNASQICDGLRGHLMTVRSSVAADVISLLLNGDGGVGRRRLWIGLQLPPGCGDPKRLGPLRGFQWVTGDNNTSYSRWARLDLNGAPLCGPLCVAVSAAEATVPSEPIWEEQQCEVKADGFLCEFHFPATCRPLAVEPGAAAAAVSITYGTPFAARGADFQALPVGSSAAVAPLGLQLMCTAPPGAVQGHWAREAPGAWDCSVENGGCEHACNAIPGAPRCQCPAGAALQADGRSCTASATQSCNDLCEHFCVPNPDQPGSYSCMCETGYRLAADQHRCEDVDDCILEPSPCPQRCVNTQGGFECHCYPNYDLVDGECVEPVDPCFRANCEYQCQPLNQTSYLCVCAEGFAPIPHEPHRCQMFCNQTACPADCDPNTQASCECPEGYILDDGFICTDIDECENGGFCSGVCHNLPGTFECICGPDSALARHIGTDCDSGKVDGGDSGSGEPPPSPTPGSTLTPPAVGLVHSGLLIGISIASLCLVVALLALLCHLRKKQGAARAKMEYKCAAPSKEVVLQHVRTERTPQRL

[6] = target: CLEC14A on transfected HEK293T cells; assay: flow cytometry, HEK293T cells transfected with CLEC14A stained with IGFBP7-Ig; dashed = transfectant, solid = WT 293T; histograms nearly overlie; the text tells this pair as not binding
CLEC14A on transfected HEK293T cells, sequence (Q86T13 22-490): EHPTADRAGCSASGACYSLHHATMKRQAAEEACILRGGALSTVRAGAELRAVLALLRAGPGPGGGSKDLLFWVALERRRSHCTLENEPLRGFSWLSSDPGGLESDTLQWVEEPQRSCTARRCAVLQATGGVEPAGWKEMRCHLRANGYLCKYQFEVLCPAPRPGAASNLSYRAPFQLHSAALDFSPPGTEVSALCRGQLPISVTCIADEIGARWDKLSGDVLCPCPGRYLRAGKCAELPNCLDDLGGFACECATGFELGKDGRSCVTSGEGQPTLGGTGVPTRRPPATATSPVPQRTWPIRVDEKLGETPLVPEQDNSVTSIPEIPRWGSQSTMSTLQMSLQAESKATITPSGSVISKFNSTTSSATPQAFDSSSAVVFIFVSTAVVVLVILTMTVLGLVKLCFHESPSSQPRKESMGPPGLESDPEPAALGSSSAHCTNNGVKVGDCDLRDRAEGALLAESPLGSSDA

CD141 [7] = assay: flow cytometry, HEK293T cells transfected with CD141 stained with MMRN2-Ig; dashed = transfectant, solid = WT 293T; histograms nearly overlie
[8] = target: CD93 on cells in Example 20 (transfected HEK293T cells, FIG. 28A; CHO cells stably expressing CD93, FIG. 28B); species not stated; assay: flow cytometry, CHO cells stably expressing CD93 stained with MMRN2-Ig (dashed) or Control (solid) in the presence of IGFBP7-His protein (panel '+IGFBP7'); bar chart of MFI beside it marked ns against 'None'
[9] = target: CD93 on cells in Example 20 (transfected HEK293T cells, FIG. 28A; CHO cells stably expressing CD93, FIG. 28B); species not stated; assay: flow cytometry, CHO cells stably expressing CD93 stained with MMRN2-Ig (dashed) or Control (solid), no competitor
[10] = target: CD248 on transfected HEK293T cells; assay: flow cytometry, HEK293T cells transfected with CD248 stained with MMRN2-Ig; dashed = transfectant, solid = WT 293T
[11] = target: CD93 on cells in Example 20 (transfected HEK293T cells, FIG. 28A; CHO cells stably expressing CD93, FIG. 28B); species not stated; assay: flow cytometry, HEK293T cells transfected with CD93 stained with MMRN2-Ig; dashed = transfectant, solid = WT 293T
[12] = target: CLEC14A on transfected HEK293T cells; assay: flow cytometry, HEK293T cells transfected with CLEC14A stained with MMRN2-Ig; dashed = transfectant, solid = WT 293T

IGFBP7-Ig (Example 20, FIG. 28A and 28E; species not stated) (Fc fusion), sequence (Q16270 27-282): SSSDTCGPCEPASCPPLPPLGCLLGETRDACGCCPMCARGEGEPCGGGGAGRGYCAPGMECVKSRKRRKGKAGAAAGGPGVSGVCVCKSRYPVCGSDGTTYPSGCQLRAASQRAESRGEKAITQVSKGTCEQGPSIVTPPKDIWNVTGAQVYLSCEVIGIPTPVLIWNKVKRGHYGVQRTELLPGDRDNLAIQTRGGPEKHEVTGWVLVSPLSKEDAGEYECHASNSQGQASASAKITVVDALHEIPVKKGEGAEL

| Substance | number printed over the positive gate of the histogram (percent of cells, unit not given) [1] | number printed over the positive gate of the histogram (percent of cells, unit not given) [2] | number printed over the positive gate of the histogram (percent of cells, unit not given) [3] | number printed over the positive gate of the histogram (percent of cells, unit not given) [4] | number printed over the positive gate of the histogram (percent of cells, unit not given) (CD141 [5]) | number printed over the positive gate of the histogram (percent of cells, unit not given) [6] | number printed over the positive gate of the histogram (percent of cells, unit not given) (CD141 [7]) | number printed over the positive gate of the histogram (percent of cells, unit not given) [8] | number printed over the positive gate of the histogram (percent of cells, unit not given) [9] | number printed over the positive gate of the histogram (percent of cells, unit not given) [10] | number printed over the positive gate of the histogram (percent of cells, unit not given) [11] | number printed over the positive gate of the histogram (percent of cells, unit not given) [12] |
| --- | --- | --- | --- | --- | --- | --- | --- | --- | --- | --- | --- | --- |
| IGFBP7-Ig (Example 20, FIG. 28A and 28E; species not stated) (Fc fusion) | 67.2 | 28.2 | 67 | 3.07 | 2.42 | 5.45 | – | – | – | – | – | – |
| MMRN2-Ig (Fc fusion) | – | – | – | – | – | – | 2.36 | 93.8 | 94.6 | 13.3 | 52.6 | 25.6 |
